Drawing on article PMC11429891, this text covers Kd for one substance.

The term Kd denotes a measure of binding affinity in units of concentration.

In this test the target is human recombinant SNAP25 (Synaptosomal Associated Protein 25) (human) (UniProt P60880). The test is described as follows: SPR. (Surface plasmon resonance follows binding to a sensor surface in real time, without labels.)
Sequence of human recombinant SNAP25 (Synaptosomal Associated Protein 25) (human) (P60880 whole entry): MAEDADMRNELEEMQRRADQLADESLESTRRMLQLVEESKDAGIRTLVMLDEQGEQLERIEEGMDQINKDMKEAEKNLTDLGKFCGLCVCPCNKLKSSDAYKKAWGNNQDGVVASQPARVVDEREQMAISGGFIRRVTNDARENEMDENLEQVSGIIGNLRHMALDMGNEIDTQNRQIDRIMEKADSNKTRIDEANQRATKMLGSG

As for “Human type V Collagen (from UniProt P20908 38-1605; P05997 27-1229) (complex)”, the Kd came out at 7.2 µM.
